Data: patent publication US10900903B2, “Protein structure analysis based on red-edge excitation shift (REES) spectroscopy” (UNIVERSITY OF BATH, priority 2016, dated 2021)
Blank lines part the entries; values can stand above or below the molecule they belong to.

How the values were obtained:
NEMO = target: T1, NEMO (Homo sapiens, UniProt Q9Y6K9); assay: REES of NEMO W6 on ligand binding (peptides, poly-ubiquitin); details: for R (fit to Eq 1), relative / A (REES magnitude, fit to Eq 2): relative to NEMO alone, binding partners; for A (REES magnitude, fit to Eq 2): peptides 1 mM, poly-ubiquitin 1 μM
T1 construct: Full length human NEMO was expressed and purified essentially as described previously [23]; made in house
T1 sequence (Q9Y6K9 whole entry): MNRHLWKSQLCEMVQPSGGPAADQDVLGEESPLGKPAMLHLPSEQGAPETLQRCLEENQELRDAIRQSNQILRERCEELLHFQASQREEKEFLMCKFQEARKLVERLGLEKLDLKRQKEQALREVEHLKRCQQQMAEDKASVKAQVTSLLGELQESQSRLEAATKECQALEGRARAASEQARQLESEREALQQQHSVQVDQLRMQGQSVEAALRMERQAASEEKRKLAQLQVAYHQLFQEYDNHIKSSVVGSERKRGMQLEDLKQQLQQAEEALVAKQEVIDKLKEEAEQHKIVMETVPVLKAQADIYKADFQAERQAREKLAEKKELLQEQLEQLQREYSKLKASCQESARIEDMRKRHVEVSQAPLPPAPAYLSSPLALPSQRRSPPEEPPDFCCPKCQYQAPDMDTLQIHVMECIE
Excerpt: Having established that the REES effect, specifically the use of Eq 2, can be used as a proxy for the protein free energy landscape, how the NEMO REES signal varies upon ligand binding is considered. […] The REES data for NEMO ligand bound states are shown in FIGS. 6A and 6B with the solid lines representing the fit to Eq 2. The resulting extracted values of A from Eq 2 are given in Table 1 and also as an inset bar chart in FIG. 6. For clarity, the relative change in R and A compared to NEMO alone is reported, extracted from Eq 1 and 2, respectively.
The IKKβ peptide (termed the NEMO binding domain, NBD) contains two Trp residues and so is not suitable for the present study as the signal from the peptide would confound the analysis of the single NEMO Trp. […] From Table 1 and FIG. 5A there is a significant difference in the magnitude of A depending on the ligand bound form of NEMO. […] If the ligand binding data shown in FIG. 5A is fitted to the simple linear function described by Eq 1 a different trend is found. […] Instead the major difference to is in the curvature of the data and this is captured by the use of Eq 2.
NEMO comprises a specific domain that non-covalently binds poly-ubiquitin. […] Poly-ubiquitin is found as a range of chain-lengths in the cell and evidence has previously been provided from ANS binding studies that NEMO undergoes different conformational change depending on the chain-length of non-covalently bound poly-ubiquitin [23]. The REES effect on NEMO W6 is explored in the presence of both short (4-mer; Ub4) and long (10-mer; Ub10) poly-ubiquitin chains, as shown in FIG. 6B. From the resulting values of A, given in Table 1, Ub4 binding gives a decrease in A (A=0.77±0.05), but Ub10 gives an increase (A=1.23±0.1). […] The absolute magnitude of the REES difference is small.
Full length human NEMO was expressed and purified essentially as described previously. Purified protein was dialysed extensively into a buffer comprising 50 mM Tris-Cl pH 8.0, 50 mM NaCl and 5 mM DTT. All measurements were made in this buffer unless otherwise stated. IKK-β and IκBα peptides were commercially synthesised by Genscript, having a purity of >98% and are of the sequence […] and […], respectively. The IKK-β peptide was modified such that the two native Trp residues were replaced with Phe residues. M1-linked poly-ubiquitin was purchased from Viva Bioscience. Staphylococcus aureus immune modulator protein fragment Sbi-III-IV K173A was expressed and purified essentially as described previously. Protein concentration used was between 1 and 5 μM. Peptide concentrations were 1 mM and poly-ubiquitin concentrations were 1 μM.
All fluorescence measurements were performed using a Perkin Elmer LS50B Luminescence Spectrometer (Perkin Elmer, Waltham, Mass., USA) connected to a circulating water bath for temperature regulation (±1° C.). Samples were incubated for 5 minutes at the given conditions prior to recording measurements. Measurements were performed at 10° C., unless otherwise stated. Excitation and emission slit widths were 5 nm except for pressure experiments where they were 10 nm. The larger slit width was required due to the optical setup of the pressure cell to ensure a […] signal-to-noise for the W6 emission signal. For NEMO red edge excitation scans, tryptophan emission was monitored from 315 to 550 nm. […] For red edge excitation scans, tyrosine emission was monitored from 294 to 400 nm, with the excitation wavelength set at 274 nm. […]

[1] = REES of NEMO W6 Trp emission: native, denatured, crowded; format: physicochemical; details: for A (REES magnitude, fit to Eq 2) / R (fit to Eq 1), relative: relative to NEMO alone; for A (REES magnitude, fit to Eq 2) / R (fit to Eq 1), relative / R0: native; for A (REES magnitude, fit to Eq 2): denatured (6M guanidine), crowded (Sbi 20 mg/ml); for R (fit to Eq 1), relative / R0: denatured, crowded; for R0: y-intercept of Eq 2 fit
Description: Typically the magnitude of the steady-state REES phenomenon is reported as the simple difference in CSM or ΔλEm^max. From FIG. 1, it is observed that a significant red shift in the emission spectra, with an increase in CSM of 17.7 nm and an increase in ΔλEm^max of 15 nm from λex 292-310 nm. Essentially the data are treated by the linear function: CSM=Rλex+CSM0 Eq 1.
Where R is the REES magnitude expressed as the change in CSM per nm of the excitation wavelength, λex.
The REES data in FIG. 2 can be best represented by a Gaussian probability distribution of the form:
Where A is the area, w is the full width at half-maximal (fwhm), m is the mid-point and R0 is the y-intercept and m=λREES^max, where λREES^max is the excitation wavelength that gives the largest change in the emission peak wavelength. The data in FIG. 2 are fit to Eq 2 and illustrate the low energy excitation at the red edge of the protein absorption spectrum. The fit of Eq 2 to the experimental data is excellent and captures the expected relationship described above.
In this case, the solvent relaxation will be very rapid and no REES effect observed, effectively because there is one discrete solvation state (fully solvated). NEMO is incubated in 6M guanidine to denature the protein and the corresponding change in the center of spectral mass (CSM) versus λex is shown in FIG. 3. The use of CSM is favoured instead of the magnitude of ΔλEm^max as this metric gives a more robust REES signal and the magnitude of may be highly error prone. However the results using ΔλEm^max are essentially the same. A decrease and red-shift in Trp emission is typically grossly correlated with denaturation of proteins. […] Note that this is not the REES effect but reflective of the solvent exposure of NEMO W6 on denaturation. […] Fitting to Eq 2 also gives a large decrease in the REES effect, A=0.37±0.4. The relative change in the REES effect is similar using either approach and this indicates strongly that a fitting approach using Eq 2 is robust.
Macromolecular crowding is a key feature of the intracellular milieu arising from the very high concentrations of other species in the cytosol. Crowding reduces the available solvent for other molecules in solution through the excluded volume effect, which effectively increase the concentration of, for example, protein and restricts the accessible conformational states through hard-core repulsions between the crowding agent and the protein. Macromolecular crowding can alter protein conformation, typically inducing folding and stabilization. Crowding therefore potentially provides a means to explore the contrasting physical effect of denaturation on the REES effect, where the protein is more folded/stabilized. A protein has been used as the crowding agent, Sbi (reported above), instead of a synthetic crowding agent since protein is much more consistent with the intracellular environment. […] Incubating NEMO with a high concentration of Sbi (20 mg/ml) gives a dramatic change to the both the absolute Trp emission and also the REES effect as shown in FIG. 3. […] Intriguingly, the REES effect is much larger in the crowded environment giving a relative increase in A of 2.24±0.51. […] This is consistent with the putative molecular model of NEMO activity that is based on allosterically regulated NEMO conformational change. Below, the potential mechanistic role of an increased number of available conformational states with respect to ligand interactions is described.
Full length human NEMO was expressed and purified essentially as described previously. Purified protein was dialysed extensively into a buffer comprising 50 mM Tris-Cl pH 8.0, 50 mM NaCl and 5 mM DTT. All measurements were made in this buffer unless otherwise stated. IKK-β and IκBα peptides were commercially synthesised by Genscript, having a purity of >98% and are of the sequence […] and […], respectively. […]

[2] = High-pressure REES measurements; format: physicochemical; details: buffered solution, any pressure
Excerpt: The CSM value is rather larger than reported for the denaturation study above (FIGS. 3A and 3B) and this is due to a different spectral window used to calculate the CSM for the pressure studies. This was necessary due to the optical setup of the pressure cell. […] Fitting the REES data to Eq 4 gives the pressure dependence of A, shown in FIG. 4D as the change in the fraction of A across the pressure range. […] The pressure dependence data can be adequately fit to a simple, phenomenological model that implies a single transition between two states with changing hydrostatic pressure as used previously:
Where Rp=83.13 cm3 mol^−1 bar K^−1 when the pressure, p, is measured in bar, K0 is the equilibrium constant for the change in the relative population of the ith conformational state represented by the magnitude of A from Eq 4, extrapolated to 0 bar and ΔVA is the apparent difference in the volume associated with this equilibrium transition.
The difference in sign is simply attributable to relative change in direction of the specific to signal. What is important is that the magnitude of ΔV is much larger for the REES effect compared to W6 emission. Indeed, this magnitude of pressure dependence is more consistent with global metrics of NEMO conformational change previously measured using the pressure dependence of 8-anilino naphthalene sulfonate (ANS) emission. The REES signal may therefore be reflective of the broader equilibrium of NEMO conformational states at sites distal to W6. […] The key finding from the pressure data in the present context is that the REES effect itself is pressure-dependent with the magnitude of A increasing with pressure.
An ISS high-pressure cell (ISS, Champaign, UL, USA), fitted with a custom fiber optic mounting to the fluorimeter and connected to a circulating water bath for temperature regulation was used to record all high-pressure measurements.
Where fi is the measured fluorescence intensity and λem is the emission wavelength. The importance of using a consistent wavelength range when reporting CSM data is stressed, as the magnitude will be dependent on the wavelength range chosen.

[3] = QUBES of mAb unfolding in urea; format: physicochemical
Description: Changes in protein structure are accompanied by a change in the equilibrium of conformational states. It has been previously found with a model system, a ‘hub’ protein (described above), that by quantitating the curvature in REES data it is possible to capture information on unfolded states and ligand induced conformational change. It was explored whether the sensitive detection of differences in REES data could be useful for detecting subtle changes in protein structure in mAbs. It is tested whether the QUBES data can be used to identify unfolding and aggregation of the mAbs since these are key issues facing the development of biopharmaceuticals. […] The formation of soluble aggregates is monitored in the thermally denatured mAbs by dynamic light scattering (DLS), shown in FIG. 19.
The observed variance in the QUBES values for the denatured mAbs (FIG. 14A) may reflect the differing extent of unfolding or aggregation for each of the samples and the specific nature of the unfolded or aggregated states. […] The data therefore illustrate that these metrics ignore early stage changes to protein structure that are not captured by simple steady-state fluorescence emission measurements.
All fluorescence measurements were performed using a Perkin Elmer LS50B Luminescence Spectrometer (Perkin Elmer, Waltham, Mass., USA) connected to a circulating water bath for temperature regulation (±1° C.). […]

Molecule: IκBα peptide: peptide mimic of IκBα, sequence DDRHDSGLDSMKD
R (fit to Eq 1), relative (NEMO): 1.35±0.1
A (REES magnitude, fit to Eq 2) (NEMO): 0.85±0.04

Molecule: NEMOdenat: NEMO incubated in 6M guanidine to denature the protein
REES effect (in words) [1]: dramatically reduced REES effect
R (fit to Eq 1), change in CSM per nm of λex ([1]; absolute value): 0.22±0.02
A (REES magnitude, fit to Eq 2) [1]: 0.37 ± 0.4
A (REES magnitude, fit to Eq 2) ([1]; listed as Denatured NEMO): 0.37±0.4
R (fit to Eq 1), relative [1]: 0.21 ± 0.01
R (fit to Eq 1), relative ([1]; listed as Denatured NEMO): 0.23±0.1
R0 [1]: 375.0 ± 0.5 nm
R0 ([1]; listed as Denatured NEMO): 375±0.5 nm
increase in CSM (red shift) ([1]; λex 292-310 nm): 4 nm

decrease in W6 emission on binding (NEMO): ~50%
Molecule: NBD-Phe: IKK-β peptide (NEMO binding domain), two Trp replaced with Phe, sequence TALDFSFLQTE
R (fit to Eq 1), relative (NEMO): 0.98±0.1
A (REES magnitude, fit to Eq 2) (NEMO): 1.33±0.3

Molecule: NEMO + Sbi: NEMO incubated with a high concentration of Sbi (20 mg/ml) as crowding agent
Trp emission intensity compared to NEMO in the absence of Sbi ([1]; Sbi 20 mg/ml): ~1.4 times
A (REES magnitude, fit to Eq 2) [1]: 2.24±0.51
R (fit to Eq 1), relative [1]: 1.07 ± 0.12
R0 [1]: 360.5±0.45 nm

Molecule: N[C@@H](Cc1c[nH]c2ccccc12)C(=O)O [free Trp, tryptophan, reference compound]
REES effect under pressure (in words) [2]: No REES effect is observed

Molecule: Tocilizumab: humanised therapeutic mAb
urea concentration at which a significant increase in CSM0 is observed [3]: 7 M
QUBES value shift on unfolding ([3]; urea): larger R and smaller A value
